Laboratory results: patent US20150197559A1
Substitutions are numbered along the chain they refer to.

B1: 1B22 IgG (antibody, V domains shown)
VH: QVQLQESGSRLVKPSQTLSLTCGVSGGSISSSSYSWSWIRQTPGKGLEWIGYIYHSGSTYYNPSLKSRVTMSVDKSRNQFSLNMSSVTAADTAVYYCARTAFYYENTGPIRCYLDFWGQGTLVTVSS
VL: DIQMTQSPSTLSASIGDRVTISCRASQSIQSWLAWYQQRPGEAPKLLIYSASTLQTGVPSRFSGSGSGTDFTLTISSLQPEDFATYYCQQYNSYPLTFGQGTKLEIK
B2: 2B25.1 IgG (antibody, V domains shown)
VH: QVQLQESGPGLVKPSQTLSLSCSVSGASITSGTFYWSWIRQHPGKDLEWIGYIYYSGTTYYNPSLKSRVTLSVDTSKNQFSLKVTSLTAADTAVYHCARGVPIYDSSGTYRGTYFDYWGQGTLVTVSS
VL: ESVLTQPPSVSAAPGQKVTISCSGSSSNIGNNYVSWYQQLPGTAPKLLIYDNNRRPSGIPDRFSGSKSGTSATLGITGLQTGDEADYYCGTWDSSLSEVVFGGGTKVTVLG
B3: B11 scFv (scFv)
scFv: QVQLLQSAGGVVQPGRSLRLSCAASGFIFRTYGMHWVRQAPGKGLEWVAFVSSDGNNKFYSDSVKGRFTIPRDNAKNTLYLQMNSLETEDTAVYYCAKDRYPIDCSGGSCFSYGMDVWGQGTTVTVSSGGGGSGGGGSGGGGSDIVMTQSPSTLSASVGDRVTVTCRASQSINSWLAWYQQKPGKAPKLLIYEASSLESGVPSRFSGSGSGTEFTLTISSLQPDDFATYYCQQYDSYWLTFGGGTKVEIK
B4: B11E8 Fab (Fab, V domains shown)
VH: EVQLVQSGGGVVQPGRSLRLSCAASGFIFRTYGMHWVRQAPGKGLEWVAFVSSDGNNKFYSDSVKGRFTISRDNAKNTLYLQMNSLETEDTAMYYCAKDRYPIDCSGGSCFSYGMDVWGQGTTVTVSS
VL: EIVLTQSPATLSVSPGERATLSCRASQSVSKFLAWYQQKRGQAPRLLIYGASTRATGIPARFSGSGSGTEFALTISSLQSEDFADYYCQQYDNWPITFGQGTRLEIKR
B5: B11E8 IgG (antibody, V domains shown)
VH: B4 VH
VL: B4 VL
B6: B11 Fab (Fab, V domains shown)
VH: B4 VH with E1Q, V5L, G8A, S71P, M93V
VL: DIVMTQSPSTLSASVGDRVTVTCRASQSINSWLAWYQQKPGKAPKLLIYEASSLESGVPSRFSGSGSGTEFTLTISSLQPDDFATYYCQQYDSYWLTFGGGTKVEIKR
B7: B11E8 scFv (scFv)
scFv: EVQLVQSGGGVVQPGRSLRLSCAASGFIFRTYGMHWVRQAPGKGLEWVAFVSSDGNNKFYSDSVKGRFTISRDNAKNTLYLQMNSLETEDTAMYYCAKDRYPIDCSGGSCFSYGMDVWGQGTTVTVSSGGGGSGGGGSGGGGSEIVLTQSPATLSVSPGERATLSCRASQSVSKFLAWYQQKRGQAPRLLIYGASTRATGIPARFSGSGSGTEFALTISSLQSEDFADYYCQQYDNWPITFGQGTRLEIK
B8: B12.1 IgG (antibody, V domains shown)
VH: QVNLRESGGGVVQPGRSLRLSCAASGFTFSSYALHWVRQTPGKGLEWVALISYDGSNKYYADSVKGRFTISRDNSKNMLYLQMNSLRAEDTAVYYCAKDRSHYGDYVGYLDYWGQGTLVTVSS
VL: AYVLTQPPSVSVAPGKTAAITCEGNNVGNKNVHWYQQRPGQAPVLVVHDDSDRPSGIPERFSGSNSGNTATLTINRVEAGDEADYYCQVWDSSSAQWVFGGGTKLTVLG
B9: 2B23 IgG (antibody, V domains shown)
VH: EVQLLESGGGLVQPGGSLRLSCAASGFTFSNYPMSWVRQAPGKGLAWVSSLTASGDNTFYADSVKGRFTISRDNSNNTLYLQMHSLRAEDTAVYYCAKALVGRYDISTGYYRPVMDSWGQGTLVTVSS
VL: DIQMTQSPPSLSASVGDRVTITCRTSQGFTSALAWYQQKPGEPPKLLIYDASKLESGVPSRFSGSGSGTNFALTISSLQPEDFATYFCQQSNSYPLTFGGGTKVEIKR
B10: 1B10.1 IgG (antibody, V domains shown)
VH: QVQLVESGGGVVQPGRSLRLSCAASGFTFSHYGMHWVRQSPGKGLEWVAVIWYDGRNPYYAASVKGRFTISRDNDKNTLYLQMNSLRAEDTAVYYCVKDLTRFHDTTFGVFEMWGPGTTVTVSS
VL: EIVLTQSPSFVSASVGDRVTITCRASQGISSWLAWYQQKPGKAPKLLIYAASSLQSGVPSRFSGSGSGTEFTLTISSLQPDDFATYYCQQYSSLYTFGQGTKVDIKR
B11: 1B18 IgG (antibody, V domains shown)
VH: EVQLVQSGGGLVQPGGSRRLSCAASGFYFNAYWMTWVRQAPGKGLEWVANINLDGTEIYYLDSVKGRFTVSRDNVKNSVFLQMSSLRVEDTAVYFCARLEWGGRNGWVSPWGQGTLVTVSS
VL: DVVMTQSPSSVSASVGDRVTITCRASQSISSYLNWYQQRPGKAPKLLIFAASSLQSAVPSRFSGSGSGTDFTLTISSLQPEDFATYYCQQSYSTPPTFGQGTKVEIKR
B12: 2B30 scFv (scFv)
scFv: EVQLVESGGGVVQPGRSLRLSCAASGFTFRRNAIHWVRQAPGKGLEWVAVISYDGVNKYYAASVKGRFAISRDNAKNTLFLQMNSLRPEDSAIYYCARDVSEYGDYVGHFDYWGQGTLVTVSSGGGGSGGGGSGGGGSSYELMQLPSASGTPGQRVSISCSGSSSNIGSNPVNWYQQLPGTAPKLLIYSNNHRPSGVPDRFSGSKSGTSASLAISGLQSEDEADYYCAAWDGSLNGHVVFGGGTKLTVL
B13: B6 scFv (scFv)
scFv: QVQLVQSGAEVKKPGESLVISCKASGDKDTFTSFWIAWVRQMPGKGLEWMGIIYAGDSDTRYSPSFQGHVNISVDRSTNTAYLQWSSLKASDTAMYYCARHDSRYKYFYFGMDVWGQGTTVTVSSGGGGSGGGGSGGGGSDVVMTQSPSSLSASVGDRITITCQAGQDISNFLNWYQQKPGKAPKLLIRDASNLETGVPSRFSGGGSGTHFTFTISSLHPEDIATYFCQQYDNLPYTFGQGTKLEIK

Legend:
[1] = target: BoNT/B2 (Clostridium botulinum); experiment: KinExA flow fluorimetry, IgG in solution
[2] = target: BoNT/B3 (Clostridium botulinum); experiment: KinExA flow fluorimetry, IgG in solution
[3] = target: BoNT/B4 (Clostridium botulinum); experiment: KinExA flow fluorimetry, IgG in solution
[4] = target: BoNT/B2 (Clostridium botulinum); experiment: flow cytometry, yeast-displayed scFv, soluble toxin
[5] = target: BoNT/B2 (Clostridium botulinum); experiment: flow cytometry, yeast-displayed Fab, soluble toxin
[6] = target: BoNT/B2 (Clostridium botulinum); experiment: flow cytometry, yeast-displayed Fab against yeast-displayed scFv

Row | Binder | Kd [1] | Kd [2] | Kd [3] | Kd [4] | also measured
1 | B1 | 0.319 nM | 0.221 nM | 0.129 nM | – | –
2 | B2 | 0.0532 nM | 0.0177 nM | 0.03 nM | – | –
3 | B3 | – | – | – | 2.11 nM | –
4 | B4 | – | – | – | – | Kd [5]: 0.166 nM
5 | B5 | 0.0181 nM | 0.0156 nM | – | – | –
6 | B6 | – | – | – | – | fold higher affinity than the scFv [6]: 1.46 fold
7 | B7 | – | – | – | 0.189 nM | –
8 | B8 | 0.0162 nM | 0.0462 nM | 0.625 nM | – | –
9 | B9 | 0.0453 nM | 0.048 nM | 0.0552 nM | – | –
10 | B10 | 0.00031 nM | 1.2 nM | 0.00047 nM | – | –
11 | B11 | 0.817 nM | 0.972 nM | 0.021 nM | – | –
12 | B12 | – | – | – | 0.19 nM | –
13 | B13 | – | – | – | 1.77 nM | –
